# Test results from publication doi:10.1101/2025.05.16.654432.
# Experiments:
# Trigger Factor = Trigger Factor (UniProt P0A850); assay: high-speed atomic force microscopy
# [1] = molecular target: ribosome-nascent chain complex (RNC) stalled on mTFP1-KCNQ helices A, TW, B-SecM arrest peptide (UniProt P0ADZ0); assay: high-speed atomic force microscopy
# Sequence of Trigger Factor (P0A850 whole entry): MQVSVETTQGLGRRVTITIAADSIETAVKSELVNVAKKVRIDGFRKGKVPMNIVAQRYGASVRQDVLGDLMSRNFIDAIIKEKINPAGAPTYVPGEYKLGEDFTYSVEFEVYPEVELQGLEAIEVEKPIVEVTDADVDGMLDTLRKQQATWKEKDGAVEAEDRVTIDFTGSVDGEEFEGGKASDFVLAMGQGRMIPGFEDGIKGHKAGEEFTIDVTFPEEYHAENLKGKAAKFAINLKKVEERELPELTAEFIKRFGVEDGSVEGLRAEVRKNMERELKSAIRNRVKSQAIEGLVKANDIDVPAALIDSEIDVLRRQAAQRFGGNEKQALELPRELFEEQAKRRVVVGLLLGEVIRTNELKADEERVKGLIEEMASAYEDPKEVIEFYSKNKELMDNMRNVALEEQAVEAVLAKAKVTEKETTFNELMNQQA
substance,measurement,setting,value
Trigger Factor (from UniProt P0A850 1-432) (natural protein),stoichiometry N,Trigger Factor,2
same,duration of binding,[1],> 30 s
same,"duration of binding (second interaction, near bL17)",[1],< 15 s
same,dwell time constant τ (first TF binding event),[1],8 s
same,dwell time constant τ (first TF molecule),[1],8.3 s
same,"dwell time constant τ (second TF molecule, near bL17)",[1],3.9 s
same,stoichiometry N,[1],2
